Assay results: publication PMC5231405 (eLife, 2016)
Each block holds one molecule with its values, some of them ahead of it.

Columns and labels:
CheY (Escherichia coli) = CheY (Escherichia coli) (UniProt P0AE67); conditions: cited from earlier work
[1] = biological target: T1, DesKCSTAB:DesR-REC complex (phosphatase complex) (Bacillus subtilis, UniProt O34757, S150I/S153L/R157I); test: X-ray crystallography; conditions: Mg2+, BeF3-; pH 8.5; CA (ATP-binding) domain; 2.79 A
T1 construct: gene desK; DesK cytoplasmic portion with DesR receiver domain; His-tag and TEV site on each, co-expressed in E. coli BL21(DE3); 2:2 complex; with Transcriptional regulatory protein DesR
T1 sequence (O34757 150-370 S150I/S153L/R157I, one chain of several): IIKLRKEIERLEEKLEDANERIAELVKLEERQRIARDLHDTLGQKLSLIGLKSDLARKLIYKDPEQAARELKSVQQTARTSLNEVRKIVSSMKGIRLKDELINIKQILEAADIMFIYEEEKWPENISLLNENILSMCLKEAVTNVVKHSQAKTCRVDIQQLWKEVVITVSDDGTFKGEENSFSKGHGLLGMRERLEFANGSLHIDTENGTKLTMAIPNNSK

[2] = biological target: T2, DesKC_(H188V), mutant of the cytoplasmic portion of DesK trapped in the phosphatase state (B. subtilis, UniProt O34757 154-370, H188V); test: ITC; VP-ITC; DesR-REC (350-400 µM) injected into the cell with DesKC variants (25-30 µM); 15°C; 20 mM Tris.HCl pH 8, 0.3 M NaCl, 10 mM MgCl2, 0.5 mM AMP-PNP; duplicate; fitted to a two independent sequential site model; conditions: both partners purified
T2 construct: DesK, histidine kinase of Bacillus subtilis; cytoplasmic portion (DesKC); also called DesK_(H188V)
T2 sequence: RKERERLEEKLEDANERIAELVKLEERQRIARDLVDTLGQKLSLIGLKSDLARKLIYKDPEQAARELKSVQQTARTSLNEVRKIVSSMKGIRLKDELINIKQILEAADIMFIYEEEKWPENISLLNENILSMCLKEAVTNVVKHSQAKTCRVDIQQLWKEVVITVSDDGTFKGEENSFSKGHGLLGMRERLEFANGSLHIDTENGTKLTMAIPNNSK

[3] = biological target: T3, DesKC_(H188E), free protein used in ITC (B. subtilis, UniProt O34757 154-370, H188E); test: as above; conditions: both partners purified
T3 construct: DesK, histidine kinase of Bacillus subtilis; cytoplasmic portion (DesKC); Kept apart from m2 because it stood alone in the calorimeter cell, whereas m2 was co-expressed and purified with DesR-REC; It may be the same polypeptide as m2
T3 sequence: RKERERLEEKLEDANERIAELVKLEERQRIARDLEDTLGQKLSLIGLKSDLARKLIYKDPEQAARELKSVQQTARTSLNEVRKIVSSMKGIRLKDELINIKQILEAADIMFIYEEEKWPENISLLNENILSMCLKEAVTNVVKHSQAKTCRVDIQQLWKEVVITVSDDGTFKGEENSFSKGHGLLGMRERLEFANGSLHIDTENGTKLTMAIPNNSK

[4] = biological target: T2, DesKC_(H188V), mutant of the …; test: as above; parameters: unit not given here; conditions: both partners purified
[5] = biological target: T3, DesKC_(H188E), free protein used in ITC; test: as above; parameters: unit not given here; conditions: both partners purified
[6] = biological target: DesKC_(STAB), phosphatase-constitutive mutant of the cytoplasmic portion of the histidine kinase DesK (B. subtilis); test: SEC-SAXS; purified DesK-DesR complexes at 10 mg/mL in 50 mM Tris.HCl pH 8.0, 300 mM NaCl, Superdex 75 5/150 GL, beamline SWING; theoretical curves of crystal models fitted with CRYSOL, mixtures with OLIGOMER

Chain of CheY (Escherichia coli) (P0AE67 2-129): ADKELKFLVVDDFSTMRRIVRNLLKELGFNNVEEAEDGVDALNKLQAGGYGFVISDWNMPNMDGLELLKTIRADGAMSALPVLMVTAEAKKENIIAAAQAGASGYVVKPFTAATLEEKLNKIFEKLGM

Molecule: CheA (from UniProt P07363)
Kd (CheY (Escherichia coli)): 30 nM

Molecule: Nc1ncnc2c1ncn2[C@@H]1O[C@H](COP(=O)(O)OP(=O)(O)CP(=O)(O)O)[C@@H](O)[C@H]1O [AMP-PCP]
X-ray crystallography [1]: one AMP-PCP (ATP analogue) moiety is bound to each CA domain

stoichiometry N [2]: 2 RR monomers per HK dimer
stoichiometry N [3]: 1 RR monomers per HK dimer
dH, first printed row (two sequential sites fit) [4]: 15000
dH, second printed row (two sequential sites fit) [4]: 14000
dH, first printed row (two sequential sites fit) [5]: 22000
dH, second printed row (two sequential sites fit) [5]: 21000
stoichiometry N (RR monomers per HK dimer) [6]: 2
B1: DesR-REC, free protein used as ligand in ITC (domain or fragment, B. subtilis)
chain: MISIFIAEDQQMLLGALGSLLNLEDDMEVVGKGTTGQDAVDFVKKRQPDVCIMDIEMPGKTGLEAAEELKDTGCKIIILTTFARPGYFQRAIKAGVKGYLLKDSPSEELANAIRSVMNGKRIYAPELMEDLYSEA
notes: DesR, response regulator of Bacillus subtilis, REC domain; Probably from pQE80-DesR-REC in E. coli TOP10F', the plasmid and host that the methods name for functional assays (Trajtenberg et al., 2014)
